Results taken from patent US20010029035A1, “Oligonucleotide conjugates” (priority 2000, published 2001).

Columns and labels:
[1] = in vivo; cited from earlier work
[2] = system: SSTR-positive CA20948 pancreas tumors; experiment: Organ distribution study in CA 20948 tumor-bearing Lewis rats; details: rat, in vivo
Procedure: As explained in more detail below, PNA peptide conjugates were synthesized by means of Boc chemistry.
Organ distribution studies of the conjugate were carried out with tumor-bearing rats. […] The tumor cells are thawed, washed with PBS and suspended carefully. The cell suspension was transplanted subcutaneously into the flank of male Lewis rats (220-250 g) (about 2×10^6 cells in 0.1 ml). […] After 1 hour, the animals were killed and dissected. Various organs/tissue samples (tumor, blood, heart, lung, liver, stomach, kidney, spleen, muscle) were removed, weighed and the activity in the gamma counter was determined. In this way, % ID/g values could be obtained. The competitive uptake could be examined by injection of 100 μg octreotide, 30 min. prior to the application of the radioactive octreotide derivative.

Row | Compound | biological half-life [1] | organ distribution compared with 3-Tyr octreotide (in words) [2] | uptake into the tumor tissue (in words) [2]
1 | C[C@@H](O)[C@@H]1NC(=O)[C@H](CCCCN)NC(=O)[C@@H](Cc2c[nH]c3ccccc23)NC(=O)[C@H](Cc2ccccc2)NC(=O)[C@@H](NC(=O)[C@H](N)Cc2ccccc2)CSSC[C@@H](C(=O)N[C@H](CO)[C@@H](C)O)NC1=O [Octreotide] | about 90 min. |  | 
2 | Cc1cn(CC(=O)N(CCNC(=O)CN(CCNC(=O)CN(CCNC(=O)CN(CCNC(=O)CN(CCNC(=O)CN(CCNC(=O)CN(CCNC(=O)CN(CCNC(=O)CN(CCNC(=O)CN(CCNC(=O)CN(CCNC(=O)CN(CCNC(=O)[C@@H](N)Cc2ccc(O)c(I)c2)C(=O)Cn2cnc3c(N)ncnc32)C(=O)Cn2cnc3c(=O)[nH]c(N)nc32)C(=O)Cn2ccc(N)nc2=O)C(=O)Cn2cnc3c(=O)[nH]c(N)nc32)C(=O)Cn2cc(C)c(=O)[nH]c2=O)C(=O)Cn2cnc3c(=O)[nH]c(N)nc32)C(=O)Cn2ccc(N)nc2=O)C(=O)Cn2cnc3c(=O)[nH]c(N)nc32)C(=O)Cn2ccc(N)nc2=O)C(=O)Cn2ccc(N)nc2=O)C(=O)Cn2cnc3c(N)ncnc32)CC(=O)NCCN(CC(=O)NCCN(CC(=O)NCCN(CC(=O)N[C@H](Cc2ccccc2)C(=O)N[C@H]2CSSC[C@@H](C(=O)N[C@H](C(=O)O)[C@@H](C)O)NC(=O)[C@H]([C@@H](C)O)NC(=O)[C@H](CCCCN)NC(=O)[C@@H](Cc3c[nH]c4ccccc34)NC(=O)[C@H](Cc3ccccc3)NC2=O)C(=O)Cn2ccc(N)nc2=O)C(=O)Cn2ccc(N)nc2=O)C(=O)Cn2ccc(N)nc2=O)c(=O)[nH]c1=O [PNA conjugate] |  | approximately the same concentration in tumor and pancreas | selective uptake, which could be inhibited with an excess of octreotide
